Measured values from paper PMC4159138, “Fission Yeast Pxd1 Promotes Proper DNA Repair by Activating Rad16^XPF and Inhibiting Dna2” (PLoS Biology, 2014).

T1: Dna2 co-overexpressed with Cdc24-YFH and purified from fission yeast (S. pombe, UniProt Q9URU2 1-1397)
T1 construct: Dna2, S. pombe; The Dna2 chain of m29, written alone for the cross-links with Cdc24; source: fission yeast pxd1Δ cells, co-overexpressed with Cdc24-YFH, purified (anti-FLAG beads)
T1 sequence (looked up): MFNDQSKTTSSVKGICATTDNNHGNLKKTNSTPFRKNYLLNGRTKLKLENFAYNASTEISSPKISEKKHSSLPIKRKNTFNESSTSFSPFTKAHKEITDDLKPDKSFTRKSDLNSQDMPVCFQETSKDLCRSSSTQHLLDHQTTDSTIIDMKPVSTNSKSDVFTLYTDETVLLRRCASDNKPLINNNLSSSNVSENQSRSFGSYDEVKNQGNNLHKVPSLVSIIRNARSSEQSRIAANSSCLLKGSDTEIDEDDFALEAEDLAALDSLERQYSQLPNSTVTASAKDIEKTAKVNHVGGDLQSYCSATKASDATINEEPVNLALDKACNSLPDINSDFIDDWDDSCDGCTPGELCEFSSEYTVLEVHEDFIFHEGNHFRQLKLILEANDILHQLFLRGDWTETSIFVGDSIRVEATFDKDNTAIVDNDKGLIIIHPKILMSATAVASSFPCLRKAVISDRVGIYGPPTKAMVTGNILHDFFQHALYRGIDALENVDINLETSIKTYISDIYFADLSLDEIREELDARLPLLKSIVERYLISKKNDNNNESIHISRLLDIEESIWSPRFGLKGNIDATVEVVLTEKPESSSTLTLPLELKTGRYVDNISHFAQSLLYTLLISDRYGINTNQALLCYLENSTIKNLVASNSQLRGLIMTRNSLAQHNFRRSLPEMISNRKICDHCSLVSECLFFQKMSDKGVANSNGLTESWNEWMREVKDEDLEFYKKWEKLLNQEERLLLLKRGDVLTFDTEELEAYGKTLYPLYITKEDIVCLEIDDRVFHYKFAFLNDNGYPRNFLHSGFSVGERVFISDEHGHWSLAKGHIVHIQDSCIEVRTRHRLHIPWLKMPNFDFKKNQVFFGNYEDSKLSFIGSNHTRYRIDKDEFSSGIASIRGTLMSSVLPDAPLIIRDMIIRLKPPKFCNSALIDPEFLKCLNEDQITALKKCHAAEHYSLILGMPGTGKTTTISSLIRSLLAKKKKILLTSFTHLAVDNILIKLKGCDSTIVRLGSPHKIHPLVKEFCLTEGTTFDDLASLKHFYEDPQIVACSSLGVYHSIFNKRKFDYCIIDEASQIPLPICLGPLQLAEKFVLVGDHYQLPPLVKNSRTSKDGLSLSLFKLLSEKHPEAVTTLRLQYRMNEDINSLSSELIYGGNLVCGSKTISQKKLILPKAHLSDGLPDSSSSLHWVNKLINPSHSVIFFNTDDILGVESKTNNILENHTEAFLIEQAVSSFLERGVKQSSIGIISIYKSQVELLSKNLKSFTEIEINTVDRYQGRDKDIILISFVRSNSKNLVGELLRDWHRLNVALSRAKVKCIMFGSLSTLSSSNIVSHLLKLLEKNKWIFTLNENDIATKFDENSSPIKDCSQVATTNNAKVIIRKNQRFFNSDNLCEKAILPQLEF

T2: RPA (UniProt Q92372;Q92373;Q92374 1-609;1-279;1-104)
T2 sequence 1: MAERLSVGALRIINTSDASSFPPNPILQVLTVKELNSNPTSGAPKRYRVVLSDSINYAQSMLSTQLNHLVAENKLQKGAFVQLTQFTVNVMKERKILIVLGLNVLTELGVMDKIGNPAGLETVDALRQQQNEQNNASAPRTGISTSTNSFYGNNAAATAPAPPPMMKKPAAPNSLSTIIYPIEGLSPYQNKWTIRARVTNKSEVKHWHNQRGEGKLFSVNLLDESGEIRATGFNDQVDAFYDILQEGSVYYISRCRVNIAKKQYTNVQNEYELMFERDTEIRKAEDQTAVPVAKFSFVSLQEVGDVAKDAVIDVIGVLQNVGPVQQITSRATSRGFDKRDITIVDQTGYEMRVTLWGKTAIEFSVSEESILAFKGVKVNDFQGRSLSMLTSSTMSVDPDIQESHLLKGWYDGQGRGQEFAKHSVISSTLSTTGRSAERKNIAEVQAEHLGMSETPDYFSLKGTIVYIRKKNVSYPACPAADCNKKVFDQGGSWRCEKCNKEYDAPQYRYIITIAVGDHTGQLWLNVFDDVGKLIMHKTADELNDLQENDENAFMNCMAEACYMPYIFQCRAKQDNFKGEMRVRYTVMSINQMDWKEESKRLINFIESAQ
T2 sequence 2: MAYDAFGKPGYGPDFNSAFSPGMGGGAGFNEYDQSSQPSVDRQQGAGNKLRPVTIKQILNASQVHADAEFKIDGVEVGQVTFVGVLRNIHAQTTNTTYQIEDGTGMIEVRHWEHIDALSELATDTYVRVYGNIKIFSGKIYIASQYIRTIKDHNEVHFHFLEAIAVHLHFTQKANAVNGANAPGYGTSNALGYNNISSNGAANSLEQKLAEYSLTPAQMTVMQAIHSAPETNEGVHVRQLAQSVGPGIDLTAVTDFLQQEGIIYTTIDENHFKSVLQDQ
T2 sequence 3: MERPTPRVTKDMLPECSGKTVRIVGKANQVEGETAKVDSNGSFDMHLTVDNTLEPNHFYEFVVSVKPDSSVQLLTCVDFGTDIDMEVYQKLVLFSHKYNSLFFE

B1: Cdc24-YFH co-overexpressed with Dna2 and purified from fission yeast (natural protein, S. pombe, UniProt O75004 1-501, looked up)
chain: MDFPGLIKKIKEDLENRLVEKSKQPAFTDYWLINKTISLLKEYPSGFSYPILINEIELACSERNKLDNVFSSLEWLTKSDAVIYLEDQFHFHCYDYYYTPIPSLKLKDSEENTCEMILHSSFYLLFHEPFNILKGSTLRFSQSRIHQKWYLRKQIRFLPTTSFVPVLQYAASKSFVKSMVESTEHEFFQIRDITISKSDQGVKRITVELGRIISLDKKGAFLIDNNTNFIHFSGTYHDFPKLLDKQQYLLIPFWSTVWEGSTNWQDGMIGILVILSENDFEEKKCDSWQVGRLAAVNSNFLVLDNNGQRVKILYSNSQKHYFKDTYIGDLLCISPINHSSDNLSDYSCVSDTTTEILSNLENPLSSNFLRNDLCKFSNLFSGVSGHLKIQPLTLVITGFVANLTRQSDLNTSLVLPEVNPLTAKMEVIDCLRNSFWAALRPNCVSYFASMISGFKELFQKEMEFPIYLDLKSYKLGFHWCDIYVDSEHNCHIQKINSLPCE
notes: Cdc24, S. pombe; The Cdc24 chain of m29, written alone for the cross-links; source: fission yeast pxd1Δ cells, co-overexpressed with Dna2, purified (anti-FLAG beads)
B2: 5' overhang DNA (oligo461/oligo463) (dsDNA)
DNA 1: CACGCTACCGAATTCTGACTTGCTAGGACATCTTTGCCCACGTTGACCC
DNA 2: GGGTCAACGTGGGCAAAG

Legend:
[1] = biological target: T1, Dna2 co-overexpressed with Cdc24-YFH …; test: cross-linking; CXMS: Dna2-Cdc24-Pxd1(227–351) complex formed on anti-FLAG beads and eluted with 3× FLAG peptide; about 12 µg cross-linked by BS3 or DSS (0.5 mM, 1 h, room temperature), trypsin, LC-MS/MS, pLink; conditions: both partners purified
RPA = biological target: T2, RPA; test: EMSA; 1 mM EDTA; 50 ng RPA; 50 mM Tris-HCl pH 7.5, 1 mM EDTA, 1 mM DTT, 0.1 mg/ml BSA, 50 mM NaCl, 5% glycerol, 15 fmol DNA in 10 µl, room temperature 30 min; 5% PAGE in 1x TBE; conditions: protein: recombinant; tags: 6xHis-GST on Rpa1 in plasmid pDB2129; copies: 1;1;1; label: 5' 32P on oligo461; 18 bp duplex with 5' overhang 31 nt on oligo461

Row | Binder | binding result [1] | binding result (RPA)
1 | B1 | binds | 
2 | B2 |  | binds
